Reference: US20160030510

Tested on: T1, MKI-EGFP fusion protein
T1 sequence: FPLKRHDKVDDLSK

Substance	phosphorylation of acetyl-CoA carboxylase (ACC) by AMPK in rat hippocampal neurons, pACC (Ser79) antibody	phosphorylation of endogenous tau at the 12E8 sites in rat hippocampal neurons, Western blot	phosphorylation of transfected HA-tagged human tau at the 12E8 sites in rat hippocampal neurons, immunostaining
AMP-activated kinase (AMPK)	MKI-EGFP did not affect the phosphorylation of acetyl-CoA carboxylase (ACC) by AMP-activated kinase (AMPK)		
MARK4 (PAR-1/MARK kinases) acting on tau in rat hippocampal neurons		expression of an MKI-GFP fusion protein in rat hippocampal neurons effectively attenuated MARK4-mediated phosphorylation of both endogenous tau (FIG. 3A) and transfected human tau at the 12E8 sites (FIG. 3B)	expression of an MKI-GFP fusion protein in rat hippocampal neurons effectively attenuated MARK4-mediated phosphorylation of both endogenous tau (FIG. 3A) and transfected human tau at the 12E8 sites (FIG. 3B)
